Results taken from patent US20070141048A1 (SYMPHOGEN A S, published 2007).

T1: Ovalbumin (UniProt P01012 2-386)
T1 sequence: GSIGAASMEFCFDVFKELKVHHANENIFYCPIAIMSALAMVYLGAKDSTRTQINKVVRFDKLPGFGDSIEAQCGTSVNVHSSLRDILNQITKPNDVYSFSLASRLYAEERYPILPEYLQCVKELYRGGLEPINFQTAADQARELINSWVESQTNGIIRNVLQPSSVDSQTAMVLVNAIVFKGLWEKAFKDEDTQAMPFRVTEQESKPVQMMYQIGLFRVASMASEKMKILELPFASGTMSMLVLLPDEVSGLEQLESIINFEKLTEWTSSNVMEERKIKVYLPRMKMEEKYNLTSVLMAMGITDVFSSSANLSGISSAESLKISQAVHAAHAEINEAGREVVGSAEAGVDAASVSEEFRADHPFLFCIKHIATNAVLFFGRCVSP


molecular target: T1, Ovalbumin; experiment: ELISA, periplasmic extract on coated Ovalbumin

Row | Binder | binding result
1 | g060h10 (Fab, V domains shown) VH: EVQLVESGAEVKKPGSSVKVSCKASGGSFSTYAITWVRQAPGQGLEWMGGIIPIFASRDYAQKFQGRVTITADESTRTVYMELSSLRSDDTAVYYCARVLGGTRLYYALNVWGQGTTVTVS VL: DIQLTQSPSSLSASVGDRVTITCRASQGISNFLAWYQQKPGKVPELLIYGASTLQSGVPSRFSGSGSGTEFTLTINSLQPEDVATYYCQKYDSGLRFTFGPGTKVDIK | no binding (tested: 10 µg/ml Ovalbumin coat)
2 | g060d05 (Fab, V domains shown) VH: KVQLVESGAEVKKPGSSVKVSCKTSGGSFSTYSITWVRQAPGQGLEWMGGINPIFATRDYAQKFQGRVTITADESTRTVYMELRNLRSEDTAVYYCARVFGGTRLYYALNVWGQGTLVTVS VL: DVVMTQSPSSLSASVGDRVTITCRASQGISNFLAWHQQKPGQVPKLLIYGASTLQSGVPSRFSGSGSGTDFTLTINGLQPEDVATYYCQKYDSGLIFTFGPGTRVEIK | no binding (tested: 10 µg/ml Ovalbumin coat)
3 | g060g11 (Fab, V domains shown) VH: EVQLVESGAEVKKPGSSVKVSCKASGGSFSTYIFTWVRQAPGQGLEWMGGINPIFATRDYPKKFQGRVTITADESTRTVYMELSSLTSEDTAVYYCARVLGGTRLYYALNVWGQGTTVTVS VL: EIVMTQSPSSLSASVGDRVTISCRASQGISNFLAWFQQKPGQVPKLLIYVASTLQSGVPSRFSGSGSGTDFSLTINGLQPEDVATYYCQRYDSGLIFTFGPGTKVEIK | no binding (tested: 10 µg/ml Ovalbumin coat)
4 | g060d04 (Fab, V domains shown) VH: KVQLVESGAEVKKPGSSVKVSCKASGGSFSTYAITWVRQAPGQGLEWMGGIIPIFASRDYAQKFQGRVTVTADESTRTVYMELSSLRSDDTAVYYCARVLGGTRLYYALNVWGQGTMVTVS VL: DVVMTQFPSSLSASVGDRVTITCRASQGISNFLAWYQQKPGKVPELLIYGASTLQSGVPSRFSGSGSGAEFTLTINSLQPEDVATYYCQKYDSGLRFTFGPGTKVDIK | no binding (tested: 10 µg/ml Ovalbumin coat)
5 | g060h02 (Fab, V domains shown) VH: EVQLVQSGAEVKKPGSSVKVSCKASGGSFSTYAITWVRQAPGQGLEWMGGIIPIFASRDYAQKFQGRVTITADESTRTVYMEPRSLRSEDTAVYYCARVLGGTRLYYALNVWGQGTLVTVS VL: EIVLTQSPSSLSASVGDRVTITCRASQGISNFLAWYQQKPGKVPELLIYGASTLQSGVPSRFSGSGSGTDFTLTINSLQPEDVATYYCQKYDSGLRFTFGPGAKVDIK | no binding (tested: 10 µg/ml Ovalbumin coat)
6 | g060g04 (Fab, V domains shown) VH: EVQLVQSGPGLVKPSETLSLTCAVSGASVSGGDYYWSWIRQPPGKALEWIGYIYYIGSTNYNPSLKSRLSLSVDTAKSQFSLKLSSVTAADTAIYFCARARRTYSGYDSAFDYWGQGTLVTVS VL: DVVMTQSPSSLSASVGDRVSITCRASRSVKTYLNWYQQKPGKAPKLLVYGSSSLESGVPSRFSGSGSGTDFTLTISSLQPEDFATYYCQQSFGTPYTFGQGTKLDTK | no binding (tested: 10 µg/ml Ovalbumin coat)
7 | g060h04 (Fab, V domains shown) VH: EVQLVQSGPGLVKPSETLSLTCAVSGASVSGGDYYWSWIRQPPGKALEWIGYIYYIGSTNYNPSLKSRLSLSVDTAKSQFSLKLSSVTAADTATYFCARARRTYSGYDSAFDYWGQGTLVTVS VL: DVVMTQSPSSLSASVGDRVSITCRASRSVKTYLNWYQQKPGKAPKLLVYGSSSLESGVPSRFSGSGSGTDFTLTISSLQPEDFATYCCQQSFGTPYTFGQGTKLDIK | no binding (tested: 10 µg/ml Ovalbumin coat)
8 | g060g03 (Fab, V domains shown) VH: EVQLVQSGPEVKKPGASVRVSCKASGYSLKNYGIHWVRQAPGQGLEWMGWISADNGDTTTALNLRGRVSMTTDTSTNTVYMEVKSLRSDDTAIYFCARDFYSGSYRSFDYWGQGTLVTVS VL: DVVMTQSPSSLSASLGDRVTITCRASQHISNYLNWYQQKPGKAPKLLIYAASSLQSGVPSRFTGSGSGADYTLTISSLQPEDFATYYCQQSYSTSWTFGQGTTVGIK | no binding (tested: 10 µg/ml Ovalbumin coat)
9 | g060a01 (Fab, V domains shown) VH: QVQLVQSGPEVKKPGASVRVSCKASGYSFKNYGIHWVRQAPGQGLEWMGWISADNGDTTTALNLRGRVSMTTDTSTNTVYMEVKSLRSDDTAIYFCARDFYSGSYRSFDCWGQGTLVTVS VL: EIVLTQSPSSLSASLGDRVTITCRASQHISNYLNWYQQKPGKAPKLLICAASSLQSGVPSRFTGSGSGADYTLTISSLQPEDFATYYCQQSYSTSWTFGQGTTVEIK | no binding (tested: 10 µg/ml Ovalbumin coat)
10 | g060f09 (Fab, V domains shown) VH: EVQLVQSGAEVKKPGSSVKVSCKTEGGTFSTYVISWMRQAPGQGLEWMGGIVPIFNTPNYAQKFQGRVTITADRSTSTAYMELRSLGSEDTAVYYCARVVGGTRSYYALGFWGQGTTVTVS VL: DIQLTQSPSSLSASVGDSVTITCRASQGISNFLAWYQKKPGKVPRLLIYGASTLQSGVPSRFSGSGSGTDFTLTISSLQPEDVATYYCQEYSNALIFTFGPGTKVHIK | no binding (tested: 10 µg/ml Ovalbumin coat)
11 | g060a09 (Fab, V domains shown) VH: GRAQVQLQESGPEVKKPGASVKVSCKASGYTFNSYGIAWVRQVPGQGLEWMGWISPYSGHTNYAEKVQGRVTMTTDTATSTACMELTSLRSDDTAVYFCARDYSSPYHFDYWGQGTWSPSR VL: LADVVMTQSPSSLSASVGDRVTISCRASQPISTYLNWYQQKPGKAPKILIFGASRLQSGVPSRFSGSGSGTDFSLTITSLQPEDFATYICQQSKSPPYNFGRGTKLEIK | no binding (tested: 10 µg/ml Ovalbumin coat)
12 | g060c07 (Fab, V domains shown) VH: KVQLVQSGAEVKKPGESLKISCQASGYGFTVYWIGWVRQPPGKGLEWLGIIYPGDSDTRYNPSFQGQVTISADKSVSTTYLQWSSLKASDTAIYYCARHLDSYDVFTGYNLGGYMDVWGKGTLVTVS VL: ETTLTQSPGTLSLSPGERATLSCRASQSVSTNYLAWYRQKPGQAPRLLIHGASSRATGIPDRFSGSGSGTDFTLTISRLEPEDFAVYFCQQYGSSPQTFGQGTRLEIK | no binding (tested: 10 µg/ml Ovalbumin coat)
13 | g060d11 (Fab, V domains shown) VH: KVQLVQSGAEVKKPGESLKISCQASGYGFTVYWIGWVRQPPGKGLEWLGIIYPGDSDTRYNPSFQGQVTISADKSVSTTYLQWSSLKASDTAIYYCARHLDSYDVFTGYNLGGYMDVWGKGTLVTVS VL: ETTLTQSPGTLSLSPGERATLSCRASQSVSTNYLAWYRQKPGQAPRLLIHGASSRATGIPDRFSGSGSGTDFTLTISRLEPEDFAVYFCQQYGSSPQTFGQGTRLEIK | no binding (tested: 10 µg/ml Ovalbumin coat)
14 | g060g02 (Fab, V domains shown) VH: EVQLVQSGAEVKKPGESLKISCQASGYGFTVYWIGWVRQLPGKGLEWLGIIYPGDSDTRYNPSFQGQVTISADKSVSTTYLQWSSLKASDTAIYYCARHLDSYDVFTGYNLGGYMDVWGKGTMVTVS VL: DIQLTQSPGTLSLSPGERATLSCRASQSVSTNYLAWYRQKPGQAPRLLIHGASSRATGIPDRFSGSGSGTDFTLTISRLEPEDFAVYFCQQYGSSPQTFGQGTRLEIK | no binding (tested: 10 µg/ml Ovalbumin coat)
